In PMC10175746:

Molecular target: pyruvate kinase isoform M2 (PKM2) (mouse (endogenous in Th17 cells)) (UniProt P52480)

Chain of pyruvate kinase isoform M2 (PKM2), P52480 1-531 (enzyme; other documents disagree on this pair) (P52480 whole entry, canonical isoform): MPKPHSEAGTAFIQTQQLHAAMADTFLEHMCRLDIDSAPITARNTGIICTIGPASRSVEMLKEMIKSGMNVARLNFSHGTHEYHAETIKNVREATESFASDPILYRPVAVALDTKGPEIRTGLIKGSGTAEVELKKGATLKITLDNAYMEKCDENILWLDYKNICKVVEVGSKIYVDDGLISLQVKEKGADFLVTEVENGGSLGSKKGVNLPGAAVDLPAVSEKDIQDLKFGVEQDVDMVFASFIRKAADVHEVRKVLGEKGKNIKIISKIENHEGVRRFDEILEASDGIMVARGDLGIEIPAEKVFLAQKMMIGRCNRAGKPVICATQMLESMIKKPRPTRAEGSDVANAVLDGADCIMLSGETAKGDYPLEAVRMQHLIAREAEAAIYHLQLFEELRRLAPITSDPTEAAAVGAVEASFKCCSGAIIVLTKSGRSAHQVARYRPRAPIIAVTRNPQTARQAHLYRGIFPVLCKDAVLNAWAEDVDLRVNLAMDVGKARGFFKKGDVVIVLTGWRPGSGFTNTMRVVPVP

stoichiometry N: 4
Substance: pyruvate kinase isoform M2 (PKM2), P52480 1-531 (enzyme; other documents disagree on this pair)
